Biological target: biotinylated γTuRC-mBFP-AviTag (human | human (endogenous in HeLa-Kyoto)) (UniProt Q9BSJ2)
Assay: TIRF microscopy; γTuRC nucleation assay: biotinylated γTuRC-mBFP-AviTag held on the glass by NeutrAvidin (1-2.5 nM used), 11-15 µM tubulin, 1 mM GTP, 1 mM ATP, with or without mScarlet-KIF2A (20-100 nM), mCherry-MCAK or spastin (100 nM); 33°C, 20-30 min

Chain of microtubules polymerised from pig brain tubulin (P02550 whole entry): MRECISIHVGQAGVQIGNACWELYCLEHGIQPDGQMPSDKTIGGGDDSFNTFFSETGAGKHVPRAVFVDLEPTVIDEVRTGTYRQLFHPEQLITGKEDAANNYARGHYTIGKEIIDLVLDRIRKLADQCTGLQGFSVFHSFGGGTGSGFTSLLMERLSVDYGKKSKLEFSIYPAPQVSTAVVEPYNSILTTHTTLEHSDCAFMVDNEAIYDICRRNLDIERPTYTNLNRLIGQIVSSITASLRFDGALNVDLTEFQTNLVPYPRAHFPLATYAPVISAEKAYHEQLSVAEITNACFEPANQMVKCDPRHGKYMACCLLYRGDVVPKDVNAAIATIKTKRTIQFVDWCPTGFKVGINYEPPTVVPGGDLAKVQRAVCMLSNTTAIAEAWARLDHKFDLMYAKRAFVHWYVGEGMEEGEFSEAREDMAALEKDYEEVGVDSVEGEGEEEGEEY
Chain of microtubules polymerised from pig brain tubulin (Q767L7 whole entry): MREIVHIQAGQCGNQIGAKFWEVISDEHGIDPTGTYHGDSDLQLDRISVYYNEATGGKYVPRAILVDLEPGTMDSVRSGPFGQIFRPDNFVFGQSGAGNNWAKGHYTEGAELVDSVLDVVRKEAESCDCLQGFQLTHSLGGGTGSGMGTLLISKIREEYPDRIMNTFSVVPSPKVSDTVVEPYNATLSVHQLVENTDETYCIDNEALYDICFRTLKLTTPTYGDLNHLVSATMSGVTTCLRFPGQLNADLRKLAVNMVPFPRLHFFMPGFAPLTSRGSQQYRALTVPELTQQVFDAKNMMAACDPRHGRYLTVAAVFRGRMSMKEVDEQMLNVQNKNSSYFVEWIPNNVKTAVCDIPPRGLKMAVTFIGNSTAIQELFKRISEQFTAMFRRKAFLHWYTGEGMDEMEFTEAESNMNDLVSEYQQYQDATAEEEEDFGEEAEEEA
Chain of biotinylated γTuRC-mBFP-AviTag (human | human (endogenous in HeLa-Kyoto)) (Q9BSJ2 whole entry, looked up): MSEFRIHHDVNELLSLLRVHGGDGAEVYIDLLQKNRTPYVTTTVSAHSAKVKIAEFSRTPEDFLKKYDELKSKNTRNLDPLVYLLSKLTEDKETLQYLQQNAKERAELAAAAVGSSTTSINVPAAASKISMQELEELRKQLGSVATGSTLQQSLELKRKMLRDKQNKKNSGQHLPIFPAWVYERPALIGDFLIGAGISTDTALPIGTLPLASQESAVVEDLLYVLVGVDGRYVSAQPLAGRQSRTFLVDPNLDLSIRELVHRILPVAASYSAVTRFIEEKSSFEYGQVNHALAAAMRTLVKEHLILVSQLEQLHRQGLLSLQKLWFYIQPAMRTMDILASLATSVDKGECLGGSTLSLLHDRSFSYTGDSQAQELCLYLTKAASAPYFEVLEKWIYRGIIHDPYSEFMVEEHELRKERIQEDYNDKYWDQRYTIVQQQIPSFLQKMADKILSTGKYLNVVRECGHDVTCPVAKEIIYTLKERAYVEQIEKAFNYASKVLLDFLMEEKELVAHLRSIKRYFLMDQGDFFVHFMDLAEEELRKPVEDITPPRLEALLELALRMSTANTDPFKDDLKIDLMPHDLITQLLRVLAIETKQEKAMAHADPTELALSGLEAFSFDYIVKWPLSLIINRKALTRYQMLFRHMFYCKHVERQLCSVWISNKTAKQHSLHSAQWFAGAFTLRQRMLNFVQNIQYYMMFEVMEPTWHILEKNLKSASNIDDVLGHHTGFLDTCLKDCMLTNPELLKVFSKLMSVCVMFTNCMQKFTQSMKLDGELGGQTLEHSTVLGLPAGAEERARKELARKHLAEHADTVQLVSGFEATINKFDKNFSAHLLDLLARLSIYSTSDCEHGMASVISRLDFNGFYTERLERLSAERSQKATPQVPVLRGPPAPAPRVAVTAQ

percent of microtubules released from immobilized γTuRC (with 20 nM mScarlet-KIF2A alone): 2% | percent of microtubules released from immobilized γTuRC (with 100 nM spastin alone): 1% | percent of microtubules released from immobilized γTuRC (with 100 nM spastin and 20 nM mScarlet-KIF2A): 40%
Substance: microtubules polymerised from pig brain tubulin (from UniProt P02550 1-451; Q767L7 1-444) (complex)

From article PMC10450741
